This is an account of results in patent US20190161548A1 (published 2019).

In test [1] the target is T1, human CTLA-4 expressed on the cell surface (human, UniProt P16410 36-223).
T1 construct: also called huCTLA-4; CHO cells expressing human CTLA-4
T1 sequence: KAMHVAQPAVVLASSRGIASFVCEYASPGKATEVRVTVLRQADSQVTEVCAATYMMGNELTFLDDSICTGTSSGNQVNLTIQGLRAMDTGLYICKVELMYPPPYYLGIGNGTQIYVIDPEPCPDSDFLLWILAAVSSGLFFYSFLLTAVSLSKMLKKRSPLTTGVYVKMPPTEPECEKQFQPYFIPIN
As to the kind of experiment: FACS on Jurkat cells which express huCTLA-4 but not PD-1, anti-human Fc secondary. The source says:
Binding of the DART and TRIDENT molecules to human CTLA-4 was detected using anti-human FC secondary Ab (FACS).

The target in test [2] is T2, His-tagged soluble cynomolgus monkey CTLA-4 (cynomolgus monkey, UniProt G7PL88 36-161).
T2 construct: extracellular domain; also called Cyno CTLA-4
T2 sequence: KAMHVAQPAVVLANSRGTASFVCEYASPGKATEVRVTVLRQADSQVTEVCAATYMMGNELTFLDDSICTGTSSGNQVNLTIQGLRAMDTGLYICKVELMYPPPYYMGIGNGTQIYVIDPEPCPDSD
Put plainly: BIACORE (SPR); His-tagged soluble cynomolgus monkey CTLA-4 captured on anti-PentaHis, binding molecule 12.5-200 nM as analyte; affinity by 1:1 Langmuir binding model. The protocol:
(§1) Briefly, His-tagged soluble CTLA-4 (an extracellular portion of human or cynomolgus monkey CTLA-4 fused to a histidine-containing peptide) was captured on immobilized anti-PentaHis and then different concentrations (12.5-200 nM) of the CTLA-4 binding molecules were passed over the immobilized CTLA-4 proteins. The kinetics of binding were determined via BIACORE® analysis (affinity by 1:1 Langmuir binding model (simultaneous ka/kd); or avidity by separate ka/kd 1:1 fit).
In general terms: Surface plasmon resonance follows binding to a sensor surface in real time, without labels.

For test [3], the target named is T3, His-tagged soluble human PD-1 (human, UniProt Q15116 25-170).
T3 construct: also called hPD-1-His; shPD-1
As to the kind of experiment: ELISA; soluble human PD-1 coated; goat anti-human-Fcgamma-HRP, PICO chemiluminescent substrate. The source says:
FIGS. 8A-8D show the results of ELISA studies measuring the binding of serially diluted binding molecules to human CTLA-4 and human PD-1. […] Goat anti-human-Fc-HRP (1:10,000) was employed as the secondary detection molecule to detect binding. FIGS. 8C-8D show the results of a study on the effect of altering orientations and binding domains on binding. […] Goat anti-human-Fcγ-HRP was employed as the secondary detection molecule to detect binding using PICO chemiluminescent substrate.
Goat anti-human-Fcγ-HRP was employed as the secondary detection molecule to detect binding using PICO chemiluminescent substrate.
Background: ELISA stands for enzyme-linked immunosorbent assay.

Test [4] has as its target T2, His-tagged soluble cynomolgus monkey …. Put plainly: BIACORE (SPR); His-tagged soluble cynomolgus monkey CTLA-4 captured on anti-PentaHis, binding molecule 12.5-200 nM as analyte; avidity by separate ka/kd 1:1 fit. The protocol:
as §1

T3 sequence (Q15116 25-170 limits assumed): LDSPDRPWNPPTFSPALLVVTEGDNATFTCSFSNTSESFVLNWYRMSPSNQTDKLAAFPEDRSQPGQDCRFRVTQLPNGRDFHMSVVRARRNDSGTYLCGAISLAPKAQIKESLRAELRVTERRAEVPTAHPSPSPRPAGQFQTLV

B1: PD-1 mAb 6 G4P (antibody, human IgG4 S228P, kappa, V domains shown)
VH: QVQLVQSGAEVKKPGASVKVSCKASGYSFTSYWMNWVRQAPGQGLEWIGVIHPSDSETWLDQKFKDRVTITVDKSTSTAYMELSSLRSEDTAVYYCAREHYGTSPFAYWGQGTLVTVSS
VL: EIVLTQSPATLSLSPGERATLSCRASESVDNYGMSFMNWFQQKPGQPPKLLIHAASNQGSGVPSRFSGSGSGTDFTLTISSLEPEDFAVYFCQQSKEVPYTFGGGTKVEIKR
notes: IgG4 with stabilized hinge, kappa light chain; also called the PD-1 antibody; parental anti-PD-1 antibody
As for B1, the response in test [1] was half-maximal at 6.56 nM (EC50).

B2: TRIDENT A (bispecific antibody, human IgG4 S228P, kappa)
chain 1: EIVLTQSPATLSLSPGERATLSCRASESVDNYGMSFMNWFQQKPGQPPKLLIHAASNQGSGVPSRFSGSGSGTDFTLTISSLEPEDFAVYFCQQSKEVPYTFGGGTKVEIKGGGSGGGGQVQLVQSGAEVKKPGASVKVSCKASGYSFTSYWMNWVRQAPGQGLEWIGVIHPSDSETWLDQKFKDRVTITVDKSTSTAYMELSSLRSEDTAVYYCAREHYGTSPFAYWGQGTLVTVSSGGCGGGEVAACEKEVAALEKEVAALEKEVAALEKESKYGPPCPPCPAPEFLGGPSVFLFPPKPKDTLYITREPEVTCVVVDVSQEDPEVQFNWYVDGVEVHNAKTKPREEQFNSTYRVVSVLTVLHQDWLNGKEYKCKVSNKGLPSSIEKTISKAKGQPREPQVYTLPPSQEEMTKNQVSLWCLVKGFYPSDIAVEWESNGQPENNYKTTPPVLDSDGSFFLYSRLTVDKSRWQEGNVFSCSVMHEALHNHYTQKSLSLSLG
chain 2: EIVLTQSPATLSLSPGERATLSCRASESVDNYGMSFMNWFQQKPGQPPKLLIHAASNQGSGVPSRFSGSGSGTDFTLTISSLEPEDFAVYFCQQSKEVPYTFGGGTKVEIKGGGSGGGGQVQLVQSGAEVKKPGASVKVSCKASGYSFTSYWMNWVRQAPGQGLEWIGVIHPSDSETWLDQKFKDRVTITVDKSTSTAYMELSSLRSEDTAVYYCAREHYGTSPFAYWGQGTLVTVSSGGCGGGKVAACKEKVAALKEKVAALKEKVAALKE
heavy: QVQLVESGGGVVQPGRSLRLSCAASGFTFSSYTMHWVRQAPGKGLEWVTFISYDGSNKHYADSVKGRFTVSRDNSKNTLYLQMNSLRAEDTAIYYCARTGWLGPFDYWGQGTLVTVSSASTKGPSVFPLAPCSRSTSESTAALGCLVKDYFPEPVTVSWNSGALTSGVHTFPAVLQSSGLYSLSSVVTVPSSSLGTKTYTCNVDHKPSNTKVDKRVESKYGPPCPPCPAPEFLGGPSVFLFPPKPKDTLYITREPEVTCVVVDVSQEDPEVQFNWYVDGVEVHNAKTKPREEQFNSTYRVVSVLTVLHQDWLNGKEYKCKVSNKGLPSSIEKTISKAKGQPREPQVYTLPPSQEEMTKNQVSLSCAVKGFYPSDIAVEWESNGQPENNYKTTPPVLDSDGSFFLVSRLTVDKSRWQEGNVFSCSVMHEALHNRYTQKSLSLSLG
light: not shown
For the molecule B2, the Kd in test [2] stood at 260 nM.

B3: DART C (bispecific antibody)
chain 1: not shown
chain 2: EIVLTQSPATLSLSPGERATLSCRASESVDNYGMSFMNWFQQKPGQPPKLLIHAASNQGSGVPSRFSGSGSGTDFTLTISSLEPEDFAVYFCQQSKEVPYTFGGGTKVEIKGGGSGGGGQVQLVESGGGVVQPGRSLRLSCAASGFTFSSYTMHWVRQAPGKGLEWVTFISYDGSNKHYADSVKGRFTVSRDNSKNTLYLQMNSLRAEDTAIYYCARTGWLGPFDYWGQGTLVTVSSGGCGGGKVAACKEKVAALKEKVAALKEKVAALKE
notes: Four-chain Fc Region-containing diabody, two PD-1 sites (PD-1 mAb 6-ISQ) and two CTLA-4 sites (CTLA-4 mAb 3), IgG4 Fc, E/K-coils
With B3, in test [3], the binding result is given as “binds”.

B4: DART D (bispecific antibody, human IgG4 S228P)
chain 1: EIVLTQSPATLSLSPGERATLSCRASESVDNYGMSFMNWFQQKPGQPPKLLIHAASNQGSGVPSRFSGSGSGTDFTLTISSLEPEDFAVYFCQQSKEVPYTFGGGTKVEIKGGGSGGGGQVQLVESGGGVVQPGRSLRLSCAASGFTFSSYTMHWVRQAPGKGLEWVTFISYDGSNKHYADSVKGRFTVSRDNSKNTLYLQMNSLRAEDTAIYYCARTGWLGPFDYWGQGTLVTVSSGGCGGGEVAACEKEVAALEKEVAALEKEVAALEKESKYGPPCPPCPAPEFLGGPSVFLFPPKPKDTLYITREPEVTCVVVDVSQEDPEVQFNWYVDGVEVHNAKTKPREEQFNSTYRVVSVLTVLHQDWLNGKEYKCKVSNKGLPSSIEKTISKAKGQPREPQVYTLPPSQEEMTKNQVSLTCLVKGFYPSDIAVEWESNGQPENNYKTTPPVLDSDGSFFLYSRLTVDKSRWQEGNVFSCSVMHEALHNHYTQKSLSLSLG
chain 2: not shown
notes: Four-chain Fc Region-containing diabody, two PD-1 sites (PD-1 mAb 6-ISQ) and two CTLA-4 sites (CTLA-4 mAb 3), IgG4 (YTE) Fc, E/K-coils
In turn, B4 yielded a Kd in test [4] of 4.9 nM.
